Assay [1] addresses T1, cynomolgus monkey FcγRIIa1 extracellular domain, C-terminal His-tag (cynomolgus monkey).
T1 construct: also called cyno FcγRIIa1; cynoFcgRIIa1
T1 chain: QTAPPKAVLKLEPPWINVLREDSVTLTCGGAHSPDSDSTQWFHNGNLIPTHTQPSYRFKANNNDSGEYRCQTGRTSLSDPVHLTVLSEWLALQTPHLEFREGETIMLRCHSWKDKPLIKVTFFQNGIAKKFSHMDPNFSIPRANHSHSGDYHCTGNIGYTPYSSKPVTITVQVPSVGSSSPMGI
As to the kind of experiment: SPR (Biacore); KD of SG1 / KD of variant.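 Further: relative to parent M103205H795-SG1 carrying the SG1 human heavy chain constant region.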 A general note: Surface plasmon resonance follows binding to a sensor surface in real time, without labels.

Assay [2] concerns the target T1, cynomolgus monkey FcγRIIa1 …. As to the kind of experiment: SPR (Biacore), antibody captured, FcgR analyte.
Assay [3] deals with T2, cynomolgus monkey FcγRIIa2 extracellular domain, C-terminal His-tag (cynomolgus monkey).
T2 construct: also called cyno FcγRIIa2; cynoFcgRIIa2
T2 chain: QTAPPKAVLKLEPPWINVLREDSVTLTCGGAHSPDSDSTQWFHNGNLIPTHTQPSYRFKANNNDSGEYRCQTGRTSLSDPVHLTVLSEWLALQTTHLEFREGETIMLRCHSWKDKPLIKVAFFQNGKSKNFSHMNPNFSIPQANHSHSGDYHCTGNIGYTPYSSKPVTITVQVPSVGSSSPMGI
As to the kind of experiment: SPR (Biacore), antibody captured, FcgR analyte.

The target in assay [4] is T3, cynomolgus monkey FcγRIIb extracellular domain, C-terminal His-tag (cynomolgus monkey).
T3 construct: also called cyno FcγRIIb; cynoFcγRIIb
T3 chain: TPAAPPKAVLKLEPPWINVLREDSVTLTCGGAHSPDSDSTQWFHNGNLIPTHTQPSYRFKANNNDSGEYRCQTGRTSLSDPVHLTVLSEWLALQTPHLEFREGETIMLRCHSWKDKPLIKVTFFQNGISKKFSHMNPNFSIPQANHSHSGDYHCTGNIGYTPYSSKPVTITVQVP
Description: SPR (Biacore), antibody captured, FcgR analyte.

In assay [5] the target is T4, cynomolgus monkey FcγRIIIaS extracellular domain, C-terminal His-tag (cynomolgus monkey, UniProt Q8SPW2 21-206 at identity 1.00)).
T4 construct: also called cyno FcγRIIIaS; cynoFcγRIIIaS
T4 chain: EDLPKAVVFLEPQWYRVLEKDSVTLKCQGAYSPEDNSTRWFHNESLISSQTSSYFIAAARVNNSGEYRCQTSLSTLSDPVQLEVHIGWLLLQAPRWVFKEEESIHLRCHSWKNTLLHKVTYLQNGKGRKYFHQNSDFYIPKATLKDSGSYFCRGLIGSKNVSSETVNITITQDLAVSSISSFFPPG
As to the kind of experiment: SPR (Biacore), antibody captured, FcgR analyte.

For assay [6], the target named is T5, human FcγRIIaH extracellular domain, C-terminal His-tag (human, UniProt P12318 34-217).
T5 construct: also called human FcγRIIa (type H); FcgRIIaH
T5 sequence: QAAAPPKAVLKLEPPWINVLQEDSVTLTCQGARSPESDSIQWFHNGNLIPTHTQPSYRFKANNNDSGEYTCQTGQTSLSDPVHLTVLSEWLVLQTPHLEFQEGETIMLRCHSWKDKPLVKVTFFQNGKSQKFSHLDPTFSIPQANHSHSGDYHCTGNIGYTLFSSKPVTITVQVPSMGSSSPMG
Description: SPR (Biacore), antibody captured, FcgR analyte.

In assay [7] the target is T6, human FcγRIIaR extracellular domain, C-terminal His-tag (human, UniProt P12318 34-217).
T6 construct: also called human FcγRIIa (type R); FcgRIIaR
T6 chain: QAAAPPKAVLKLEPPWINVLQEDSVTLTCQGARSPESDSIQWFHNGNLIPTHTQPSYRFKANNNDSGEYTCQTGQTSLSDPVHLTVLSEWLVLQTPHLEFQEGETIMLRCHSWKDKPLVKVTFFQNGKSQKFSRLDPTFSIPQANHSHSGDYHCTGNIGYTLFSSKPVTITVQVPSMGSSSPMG
Description: SPR (Biacore), antibody captured, FcgR analyte.

Assay [8] concerns the target T7, human FcγRIIb extracellular domain, C-terminal His-tag (human, UniProt P31994 43-217).
T7 construct: also called human FcgRIIb; FcgRIIb
T7 sequence: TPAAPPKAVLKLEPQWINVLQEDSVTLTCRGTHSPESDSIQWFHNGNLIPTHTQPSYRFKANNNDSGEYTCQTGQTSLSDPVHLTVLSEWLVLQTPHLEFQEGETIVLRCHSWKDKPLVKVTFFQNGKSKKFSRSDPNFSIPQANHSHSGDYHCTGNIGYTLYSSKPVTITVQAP
Description: SPR (Biacore), antibody captured, FcgR analyte.

The target in assay [9] is T8, human FcγRIIIaV extracellular domain, C-terminal His-tag (human, UniProt P08637 17-208).
T8 construct: also called human FcgRIIIaV; FcgRIIIaV
T8 sequence (P08637 17-208 F176V): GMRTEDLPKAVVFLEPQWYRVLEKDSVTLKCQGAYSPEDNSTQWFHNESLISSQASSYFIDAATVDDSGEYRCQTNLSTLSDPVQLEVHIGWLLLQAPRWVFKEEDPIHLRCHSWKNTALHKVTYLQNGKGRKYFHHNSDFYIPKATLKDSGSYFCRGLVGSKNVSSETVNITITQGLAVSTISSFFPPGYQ
As to the kind of experiment: SPR (Biacore), antibody captured, FcgR analyte.

B1: M103205H795-MY141/M103202L889-SK1 (antibody, human IgG1, kappa)
heavy: QVTLKESGPVLVKPTETLTLTCTVSGIDLSHDDISWVRQAPGKGLEWVGIISYAGSTYYASWAKGRLTISKDTSKNQVVLTMTNMDPVDTATYYCARGVPAYSHGGDLWGQGTLVTVSSASTKGPSVFPLAPSSKSTSGGTAALGCLVKDYFPEPVTVSWNSGALTSGVHTFPAVLQSSGLYSLSSVVTVPSSSLGTQTYICNVNHKPSNTKVDKKVEPKSCDKTHTCPPCPAPELLNGPSVFLFPPKPKDTLMISRTPEVTCVVVDVAHEDPEVKFNWYVDGVEVHNAKTKPREEQYNSTYRVVSVLTVLHQDWLNGKEYKCKVSNKALPAPIEKTISKAKGQPREPQVYTLPPSREEMTKNQVSLTCLVKGFYPSDIAVEWESNGQPENNYKTTPMVLDSDGSFFLYSKLTVDKSRWQQGNVFSCSVMHEALHNHYTQKSLSLSP
light: DIVMTQSPATLSLSPGERATLSCTSSQSVYHANWLSWFQQKPGQPPKLLIYWASTLAYGVPSRFSGSGSGTDFTLTISSLQPEDAATYYCAGGYGGGRYAFGQGTKVEIKRTVAAPSVFIFPPSDEQLKSGTASVVCLLNNFYPREAKVQWKVDNALQSGNSQESVTEQDSKDSTYSLSSTLTLSKADYEKHKVYACEVTHQGLSSPVTKSFNRGEC
notes: Substitutions introduced into M103205H795-SG1; expressed with M103202L889-SK1 as light chain
As to B1, in [1], the “KD fold (SG1 = 1)” value amounted to 1.5 fold. In addition, the Kd in assay [2] was found to be 22000 nM; in [3] it was 2800 nM; in assay [4], 1800 nM; in assay [5], 47000 nM; in [6], 12000 nM; in [7], 1600 nM. The Kd came out at 1100 nM in [8] and 12000 nM in assay [9].

B2: M103205H795-MY147/M103202L889-SK1 (antibody, human IgG1, kappa)
heavy: QVTLKESGPVLVKPTETLTLTCTVSGIDLSHDDISWVRQAPGKGLEWVGIISYAGSTYYASWAKGRLTISKDTSKNQVVLTMTNMDPVDTATYYCARGVPAYSHGGDLWGQGTLVTVSSASTKGPSVFPLAPSSKSTSGGTAALGCLVKDYFPEPVTVSWNSGALTSGVHTFPAVLQSSGLYSLSSVVTVPSSSLGTQTYICNVNHKPSNTKVDKKVEPKSCDKTHTCPPCPAPELWNGPSVFLFPPKPKDTLMISRTPEVTCVVVDVSEEDPEVKFNWYVDGVEVHNAKTKPREEQYNSTYRVVSVLTVLHQDWLNGKEYKCKVSNKALPAPIEKTISKAKGQPREPQVYTLPPSREEMTKNQVSLTCLVKGFYPSDIAVEWESNGQPENNYKTTPMVLDSDGSFFLYSKLTVDKSRWQQGNVFSCSVMHEALHNHYTQKSLSLSP
light: DIVMTQSPATLSLSPGERATLSCTSSQSVYHANWLSWFQQKPGQPPKLLIYWASTLAYGVPSRFSGSGSGTDFTLTISSLQPEDAATYYCAGGYGGGRYAFGQGTKVEIKRTVAAPSVFIFPPSDEQLKSGTASVVCLLNNFYPREAKVQWKVDNALQSGNSQESVTEQDSKDSTYSLSSTLTLSKADYEKHKVYACEVTHQGLSSPVTKSFNRGEC
notes: as for B1
Regarding B2, the “KD fold (SG1 = 1)” value in assay [1] stood at 1.5 fold. Further, the equilibrium dissociation constant (Kd) in assay [2] stood at 2200 nM; in [3], 2200 nM; in [4] it was 960 nM; in [5] it was 5500 nM; in assay [6], 1200 nM; in assay [7], 1100 nM. In addition, the results for the Kd in [8] and in assay [9] were 850 nM and 11000 nM, respectively.

B3: M103205H795-MY197/M103202L889-SK1 (antibody, human IgG1, kappa)
heavy: QVTLKESGPVLVKPTETLTLTCTVSGIDLSHDDISWVRQAPGKGLEWVGIISYAGSTYYASWAKGRLTISKDTSKNQVVLTMTNMDPVDTATYYCARGVPAYSHGGDLWGQGTLVTVSSASTKGPSVFPLAPSSKSTSGGTAALGCLVKDYFPEPVTVSWNSGALTSGVHTFPAVLQSSGLYSLSSVVTVPSSSLGTQTYICNVNHKPSNTKVDKKVEPKSCDKTHTCPPCPAPELLNGPSVFLFPPKPKDTLMISRTPEVTCVVVDVSDEDPEVKFNWYVDGVEVHNAKTKPREEQYNSTYRVVSVLTVLHQDWLNGKEYKCKVSNKALPKPIEKTISKAKGQPREPQVYTLPPSREEMTKNQVSLTCLVKGFYPSDIAVEWESNGQPENNYKTTPMVLDSDGSFFLYSKLTVDKSRWQQGNVFSCSVMHEALHNHYTQKSLSLSP
light: DIVMTQSPATLSLSPGERATLSCTSSQSVYHANWLSWFQQKPGQPPKLLIYWASTLAYGVPSRFSGSGSGTDFTLTISSLQPEDAATYYCAGGYGGGRYAFGQGTKVEIKRTVAAPSVFIFPPSDEQLKSGTASVVCLLNNFYPREAKVQWKVDNALQSGNSQESVTEQDSKDSTYSLSSTLTLSKADYEKHKVYACEVTHQGLSSPVTKSFNRGEC
notes: as for B1
Turning to B3, the “KD fold (SG1 = 1)” value in [1] was 5.5 fold. The Kd in assay [2] was found to be 580 nM; in [3], 560 nM; in [4], 170 nM; in assay [5], 2100 nM; in assay [6], 360 nM; in assay [7] it was 710 nM. Moreover, the Kd in [8] was found to be 890 nM; in assay [9] it was 10000 nM.

Usually Kd stands for the constant that tells how readily two partners part at equilibrium.

Source of the values: patent publication US20200317768A1 (published 2020).
